Reference: US8409836B2, “Treatment of cellulosic material and enzymes useful therein” (Roal Oy, priority 2005, dated 2013)

Experiments:
Assay type in all cases: biochemical
[1] = Thermal stability of purified cellobiohydrolases; conditions: 0.1% BSA, pH 5.0, 60 min, MUL substrate
Method: Thermal stability of the purified cellobiohydrolases was determined at different temperatures. The reaction was performed in the presence of 0.1% BSA at pH 5.0 for 60 min using 4-methylumbelliferyl-β-D-lactoside as substrate. C. thermophilum ALKO4265 CBH/Cel7A and A. thermophilum ALKO4245 CBH/Cel7A were stable up to 65° and 60° C., respectively. The T. reesei reference enzyme (CBHI/Cel7A) retained 100% of activity up to 55° C.

[2] = pH optimum of recombinant CBH/Cel7 proteins; conditions: McIlvaine buffer, pH range 3.0-8.0, MUL, 50° C., 10 min
Method: The recombinant CBH/Cel7 enzyme preparations were characterized in terms of pH optimum and thermal stability. The pH optimum of the recombinant CBH/Cel7 proteins from Thermoascus aurantiacus, Chaetomium thermophilum, and Acremonium thermophilum were determined in the universal McIlvaine buffer within a pH range of 3.0-8.0 using 4-methylumbelliferyl-β-D-lactoside (MUL) as a substrate (FIG. 3A). The pH optimum for Ct Cel7A and At Cel7A enzymes is at 5.5, above which the activity starts to gradually drop. The pH optimum of the recombinant crude Ta Cel7A is at 5.0 (FIG. 3A). Thermal stability of the recombinant Cel7 enzymes was determined by measuring the MUL activity in universal McIlvaine buffer at the optimum pH with reaction time of 1 h.

[3] = Specific activity on MUG3; conditions: purified cellobiohydrolases, 50° C., pH 5.0
Method: (§1) The specific activity of the preparations was determined using 4-methylumbelliferyl-β-D-lactoside (MUL), 4-methylumbelliferyl-β-D-cellobioside (MUG2) or 4-methylumbelliferyl-β-D-cellotrioside (MUG3) as substrate (van Tilbeurgh et al., 1988) in 0.05 M sodium citrate buffer pH 5 at 50° C. for 10 min. Endoglucanase and xylanase activities were determined by standard procedures (according to IUPAC, 1987) using carboxymethyl cellulose (CMC) and birch glucuronoxylan (Bailey et al., 1992) as substrates. Specific activity against Avicel was calculated on the basis of reducing sugars formed in a 24 h reaction at 50° C., pH 5.0, with 1% substrate and 0.25 μM enzyme dosage. The protein content of the purified enzyme preparations was measured according to Lowry et al., 1951. To characterize the end products of hydrolysis, soluble sugars liberated in 24 h hydrolysis experiment, as described above, were analysed by HPLC (Dionex). Purified cellobiohydrolase I (CBHI/Cel7A) of Trichoderma reesei was used as a reference.

[4] = Specific activity against Avicel; conditions: 50° C., pH 5.0, 24 h, 1% substrate, 0.25 μM enzyme
Method: as §1

[5] = Hydrolysis with CBH enzyme mixtures, spruce; conditions: additional enzymes EGII, bG; 48 h, 45° C., pH 5.0
Method: (§2) The performance of the purified recombinant cellobiohydrolases was evaluated in the hydrolysis studies with purified T. reesei enzymes. Hydrolysis was carried out with controlled mixtures of purified enzymes on several pre-treated substrates. […] In addition, pure T. reesei cellulases (purified as described by Suurnäkki et al., 2000) were used in the enzyme mixtures. The cellobiohydrolases used in the experiment were:
(§3) Each CBH/Cel7 to be tested (dosage 14.5 mg/g dry matter of substrate) was used either together with EGII/Cel5A of T. reesei (3.6 mg/g) or with a mixture containing T. reesei EGI/Cel7B (1.8 mg/g), EGII/Cel5A (1.8 mg/g), xylanase pI 9 (Tenkanen et al. 1992) (5000 nkat/g) and acetyl xylan esterase (AXE) (Sundberg and Poutanen, 1991) (250 nkat/g). All mixtures were supplemented with additional β-glucosidase from a commercial enzyme preparation Novozym 188 (176 nkat/g d.w.). Triplicate tubes containing the enzyme mixture and 10 mg (dry matter)/ml of the substrate suspended in 0.05 M sodium acetate were incubated in mixing by magnetic stirring at 45° C. for 48 h. Reference samples with inactivated enzymes and corresponding substrates were also prepared. The release of hydrolysis products was measured as reducing sugars with DNS method using glucose as standard (Table 30).
Washed steam pre-treated spruce fibre (impregnation with 3% w/w SO2 for 20 min, followed by steam pre-treatment at 215° C. for 5 min), dry matter 25.9% (SPRUCE).

[6] = Specific activity on MUG2; conditions: purified cellobiohydrolases, 50° C., pH 5.0
Method: as §1

[7] = Hydrolysis with CBH enzyme mixtures, Avicel; conditions: additional enzymes EGII, bG; 48 h, 45° C., pH 5.0
Method: as §2, §3
Crystalline cellulose (Avicel)

Specific activity on MUL = conditions: purified cellobiohydrolases, 50° C., pH 5.0
Method: as §1

[8] = Endoglucanase activity on carboxymethyl cellulose; conditions: purified cellobiohydrolases, 50° C., pH 5.0
Method: as §1
Acremonium thermophilum ALKO4245 was grown as described in Example 1. The culture supernatant was incubated at 70° C. for 24 hours after which it was concentrated by ultrafiltration. The pure endoglucanase was obtained by sequential purification with hydrophobic interaction and cation exchange chromatography followed by gel filtration. The endoglucanase activity of the fractions collected during purification was determined using carboxymethyl cellulose (CMC) as substrate (procedure of IUPAC 1987). Protein content was measured by BioRad Assay Kit (Bio-Rad Laboratories) using bovine serum albumine as standard.
Thermoascus aurantiacus ALKO4242 was grown as described in Example 1. The pure endoglucanase was obtained by sequential purification with hydrophobic interaction and anion exchange chromatography followed by gel filtration. The endoglucanase activity of the fractions collected during purification was determined using carboxymethyl cellulose (CMC) as substrate (procedure of IUPAC 1987). Protein content was measured by BioRad Assay Kit (Bio-Rad Laboratories) using bovine serum albumine as standard.

[9] = Hydrolysis with CBH enzyme mixtures, corn stover; conditions: additional enzymes EGII, bG, 48 h, 45° C., pH 5.0
Method: as §2, §3
Washed wet oxidized corn stover fibre (WOCS).

[10] = Hydrolysis with CBH enzyme mixtures, willow; conditions: additional enzymes EGII, bG, 48 h, 45° C., pH 5.0
Method: as §2, §3
Washed steam pre-treated willow fibre (pre-treatment for 14 min at 210° C.), dry matter 23.0% (WILLOW).

[11] = Xylanase activity on birch xylan; conditions: purified cellobiohydrolases, 50° C., pH 5.0
Method: as §1
Acremonium thermophilum ALKO4245 was grown as described in Example 1. The culture supernatant was incubated at 70° C. for 24 hours after which, it was concentrated by ultrafiltration. The pure xylanase was obtained by sequential purification with hydrophobic interaction and cation exchange chromatography followed by gel filtration. The xylanase activity was determined using birch xylan as substrate (procedure of IUPAC 1987). Protein was assayed by BioRad Protein Assay Kit (Bio-Rad Laboratories) using bovine serum albumin as standard.
Thermoascus aurantiacus ALKO4242 was grown as described in Example 1. The pure xylanase was obtained by sequential purification with hydrophobic interaction, anion, and cation exchange chromatography followed by gel filtration. The xylanase activity was determined using birch xylan as substrate (procedure of IUPAC 1987). Protein was assayed by BioRad Protein Assay Kit (Bio-Rad Laboratories) using bovine serum albumin as standard.

Row | Molecule | Thermal stability: temperature up to which stable / 100% of activity retained [1] | pH optimum [2] | Specific activity, MUG3 [3] | Specific activity, Avicel [4] | Hydrolysis products as reducing sugars, SPRUCE [5] | Specific activity, MUG2 [6] | Hydrolysis products as reducing sugars, Avicel [7] | Specific activity, MUL (Specific activity on MUL) | Specific activity, CMC [8] | Hydrolysis products as reducing sugars, WOCS ([9]; EGI, XYL, AXE) | Hydrolysis products as reducing sugars, WOCS [9] | Hydrolysis products as reducing sugars, WILLOW ([10]; EGI, XYL, AXE) | Hydrolysis products as reducing sugars, WILLOW [10] | Specific activity, Xylan [11]
1 | Ct Cel7A: cellobiohydrolase of Chaetomium thermophilum ALKO4265, gene Ct cel7A, amino acid SEQ ID NO: 8, with CBD (protein) MMYKKFAALAALVAGASAQQACSLTAENHPSLTWKRCTSGGSCSTVNGAVTIDANWRWTHTVSGSTNCYTGNQWDTSLCTDGKSCAQTCCVDGADYSSTYGITTSGDSLNLKFVTKHQYGTNVGSRVYLMENDTKYQMFELLGNEFTFDVDVSNLGCGLNGALYFVSMDADGGMSKYSGNKAGAKYGTGYCDAQCPRDLKFINGEANVGNWTPSTNDANAGFGRYGSCCSEMDVWEANNMATAFTPHPCTTVGQSRCEADTCGGTYSSDRYAGVCDPDGCDFNAYRQGDKTFYGKGMTVDTNKKMTVVTQFHKNSAGVLSEIKRFYVQDGKIIANAESKIPGNPGNSITQEYCDAQKVAFSNTDDFNRKGGMAQMSKALAGPMVLVMSVWDDHYANMLWLDSTYPIDQAGAPGAERGACPTTSGVPAEIEAQVPNSNVIFSNIRFGPIGSTVPGLDGSNPGNPTTTVVPPASTSTSRPTSSTSSPVSTPTGQPGGCTTQKWGQCGGIGYTGCTNCVAGTTCTQLNPWYSQCL | up to 65 °C | 5.5 | 1.5 nkat/mg | 1.4 nkat/mg | 2.6 mg/mL | 18.9 nkat/mg | 6.0 mg/mL | 54.0 nkat/mg | 5.5 nkat/mg | 5.6 mg/mL | 3.4 mg/mL | 4.0 mg/mL | 2.6 mg/mL | 6.7 nkat/mg
2 | Tr Cel7A: purified cellobiohydrolase I (CBHI/Cel7A) of Trichoderma reesei used as a reference (protein, UniProt P62694 18-513, looked up) Exoglucanase 1: QSACTLQSETHPPLTWQKCSSGGTCTQQTGSVVIDANWRWTHATNSSTNCYDGNTWSSTLCPDNETCAKNCCLDGAAYASTYGVTTSGNSLSIGFVTQSAQKNVGARLYLMASDTTYQEFTLLGNEFSFDVDVSQLPCGLNGALYFVSMDADGGVSKYPTNTAGAKYGTGYCDSQCPRDLKFINGQANVEGWEPSSNNANTGIGGHGSCCSEMDIWEANSISEALTPHPCTTVGQEICEGDGCGGTYSDNRYGGTCDPDGCDWNPYRLGNTSFYGPGSSFTLDTTKKLTVVTQFETSGAINRYYVQNGVTFQQPNAELGSYSGNELNDDYCTAEEAEFGGSSFSDKGGLTQFKKATSGGMVLVMSLWDDYYANMLWLDSTYPTNETSSTPGAVRGSCSTSSGVPAQVESQSPNAKVTFSNIKFGPIGSTGNPSGGNPPGGNRGTTTTRRPATTTGSSPGPTQSHYGQCGGIGYSGPTVCASGTTCQVLNPYYSQCL | up to 55 °C | – | 0.9 nkat/mg | 0.6 nkat/mg | 2.9 mg/mL | 4.3 nkat/mg | 4.7 mg/mL | 21.9 nkat/mg | 1.0 nkat/mg | 6.0 mg/mL | 2.9 mg/mL | 4.1 mg/mL | 2.9 mg/mL | 1.3 nkat/mg
